Measured values reported in US20230295308A1, “ANTAGONISTIC BIPARATOPIC ANTIBODIES THAT SPECIFICALLY BIND FIBROBLAST GROWTH FACTOR RECEPTOR 2 AND METHODS OF USING SAME” (The Broad Institute, Inc., priority 2020, published 2023).
Entries after “also recorded” stand apart in the source; their conditions may differ.

Columns and labels:
[1] = target: FGFR2 on SNU-16 gastric cancer cell line with FGFR2 amplification (UniProt P21802); assay: row 'Kd (nM) (FACS)'; FACS on SNU-16 cells
[2] = target: FGFR2 on SNU-16 gastric cancer cell line with FGFR2 amplification (UniProt P21802); assay: FACS on SNU-16 cells, % cells with FITC+ [cont.]
[3] = target: FGFR2b alpha IIIb antigen (UniProt P21802); assay: SPR (Biacore), antibody on chip, FGFR2b alpha IIIb antigen
[4] = target: FGFR2 on SNU-16 gastric cancer cell line with FGFR2 amplification (UniProt P21802); assay: FACS on SNU-16 cells, % No. of cells with FITC+ [cont.]
[5] = target: FGFR2b alpha IIIb antigen (UniProt P21802); assay: SPR (Biacore), antibody immobilized, FGFR2b alpha IIIb in flow
[6] = target: FGFR2 on SNU-16 gastric cancer cell line with FGFR2 amplification (UniProt P21802); assay: FACS on SNU-16 cells, % cells with FITC+ against log antibody concentration; Kd printed in the legend box [cont.]
[7] = test system: NIH3T3 cells overexpressing FGFR2-BICC1 fusion; assay: NIH3T3 FGFR2-BICC1 cell confluency, Incucyte (FIGS. 19A-19E); type: cell-based; conditions: 60 hours, 0.013-1 μM
Procedure: FIGS. 19A-19E present graphs showing the ability of biparatopic antibodies to impact FGFR2-fusion driven cell growth in NIH3T3 cells molecularly engineered to overexpress FGFR2-BICC1 fusion. […] The nomenclature of the biparatopic antibodies is based on the designations and descriptions of the parental antibodies presented in FIG. 7B.
The impact of biparatopic antibodies on FGFR2-fusion driven cell growth was assessed in a cell-based assay using biparatopic antibodies that bind to the ECD of FGFR2 and generated as described supra (Example 4). As described herein, the biparatopic antibodies were added to cultures of cells (e.g., NIH3T3 cells or BaF3 cells) molecularly engineered to overexpress FGFR2 fusion.
For assays using NIH3T3 cells, (FIGS. 19A-19E), NIH3T3 cells overexpressing a FGFR2-BICC1 fusion construct were plated in 384 black well plates at a concentration of 1000 cells/well overnight. 6 parental antibodies and 13 biparatopic antibodies were added to each well in duplicates at various concentrations ranging from 1 μM to 0.013 μM (1 μM, 0.833 μM, 0.600 μM, 0.450 μM, 0.316 μM, 0.233 μM, 0.166 μM, 0.125 μM, 0.091 μM, 0.066 μM, 0.048 μM, 0.035 μM, 0.025 μM, 0.018 μM, and 0.013 μM). The cell confluency was measured using Incucyte at 60 hours post treatment, and the IC50 curves were generated using non-linear fit in PRISM 9 software.

[8] = test system: FGFR2-PHDGH fusion expressing BaF3 cells; assay: growth of BaF3 cells expressing FGFR2-PHGDH fusion, absence of FGF ligands (FIG. 9); type: cell-based; conditions: BaF3 FGFR2-PHGDH fusion
Procedure: Antibodies A-F were tested to determine whether they could inhibit the ligand-induced growth of BaF3 cells expressing FGFR2IIIb. Antibodies C, D, and E, which bind FGFR2 Ig-2 and Ig-3, were effective in blocking ligand-induced growth of BaF3 cells expressing wild-type FGFR2IIIb (FIG. 8). The effects of antibodies A-F were then tested on BaF3 cells expressing FGFR2-PHDGH fusions. […] Antibody F inhibited the FGFR2-PHDGH activating fusion in BaF3 cells (FIG. 9).

[9] = target: FGFR2b alpha IIIb (Homo sapiens, UniProt P21802); assay: Surface Plasmon Resonance (SPR) binding; conditions: FGFR2b alpha IIIb antigen
Sequence of FGFR2b alpha IIIb (P21802 22-378 isoform P21802-3): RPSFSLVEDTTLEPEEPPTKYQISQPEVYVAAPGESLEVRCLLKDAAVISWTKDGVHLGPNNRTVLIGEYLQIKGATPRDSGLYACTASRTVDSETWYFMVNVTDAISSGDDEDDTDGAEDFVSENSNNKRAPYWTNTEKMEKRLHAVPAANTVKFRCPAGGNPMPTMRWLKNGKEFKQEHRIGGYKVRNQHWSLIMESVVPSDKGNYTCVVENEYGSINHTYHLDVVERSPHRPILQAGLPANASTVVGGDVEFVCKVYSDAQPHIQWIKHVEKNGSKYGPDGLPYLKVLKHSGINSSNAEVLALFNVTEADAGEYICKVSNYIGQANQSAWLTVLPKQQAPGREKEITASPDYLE
Source text: FIGS. 17A-17C provide a schematic and tabular data related to assessments made to compare the avidity of biparatopic antibodies to that of their parental (bivalent monospecific) antibodies.
Surface Plasmon Resonance (SPR) as known in the art was used to determine the binding affinities of biparatopic antibodies. The SPR-based binding method involves immobilization of a ligand (antibody) on the surface of a sensor chip. The binding partner of interest or an analyte (FGFR2 ECD) flow through the flow channel. Different concentrations of an analyte flow over the ligand, and the interactions of ligand-analyte can be characterized. The SPR signal originates from changes in the refractive index of the […] at the surface of the sensor chip. The increase in mass associated with a binding event causes a proportional increase in the refractive index, which is observed as a change in response-resonance signal. In brief, for the experiments using the antibodies described herein, the SPR assay was carried out by immobilizing antibodies (used as […]) at a concentration ranging from 1-1000 nM and flow-through FGFR2b alpha IIIb antigen (used as […]). The antibody kinetic data for the interaction with FGFR2b alpha IIb antigen were fitted to the 2-state and 1-1 binding models using Biocore software. The mean and standard deviation KD values are derived from at least three independent runs.
Using SPR, the kinetics of 6 monospecific and 13 biparatopic antibodies for binding to a single antigen, FGFR2b alpha IIb, was measured so as to compare avidity of the biparatopic antibodies to their parental antibodies. Without wishing to be bound by theory, it was expected that the biparatopic antibodies would bind to the FGFR2 antigen more tightly than their parental antibodies and that the tighter binding biparatopic antibodies among the antibodies that were assessed would be more efficient in blocking FGFR2 dimerization (FIG. 17A), thereby leading to inhibition or blocking of constitutive FGFR2 signaling and/or oncogenic transformation. […]

[10] = target: T1, 15AA-Nterm FGFR2; assay: row 'Kd (nM) (patent)', value quoted from the source patent; method: Indirect ELISA-15AA-Nterm FGFR2
T1 peptide: RPSFSLVEDTTLEPE

[11] = target: FGFR2b alpha IIIb antigen (UniProt P21802); assay: SPR (Biacore), KD matrix by the two arms; unit M from FIG. 17B and paragraph 180

B1: 10164 (antibody, V domains shown)
VH: QVQLVESGGGLVKPGGSLRLSCAASGFTFSSYALSWVRQAPGKGLEWVGRIRSKIDGGTTDYAAPVKGRFTISRDDSKNTLYLQMNSLKTEDTAVYYCARDRSPSDSSAFAIWGQGTLVTVSS
VL: DIELTQPPSVSVSPGQTASITCSGDNLGSQYVDWYQQKPGQAPVLVIYDDNDRPSGIPERFSGSNSGNTATLTISGTQAEDEADYYCQSWDSLSVVFGGGTKLTVLG
notes: the duobody scheme implies IgG1 with K409R or F405L; also called Antibody C; N10164
Q: Which results are given for B1?
A: Kd [1]: 0.13 nM; EC50 (read off the curve) [2]: 0.02 µg/mL; Kd [3]: 1.7 nM; EC50 (read off the curve) [4]: 0.02 µg/mL; Binding Stoichiometry [5]: 1.9; Kd [6]: 0.13 nM

B2: GE/N10: biparatopic antibody combining parental antibodies GE (Antibody D) and N10 (Antibody C) (antibody, V domains shown)
VH 1: EVQLVESGGGLVQPGGSLRLSCAASGFPFTSTGISWVRQAPGKGLEWVGRTHLGDGSTNYADSVKGRFTISADTSKNTAYLQMNSLRAEDTAVYYCARTYGIYDTYDMYTEYVMDYWGQGTLVTVSS
VL 1: DIQMTQSPSSLSASVGDRVTITCRASQDVDTSLAWYKQKPGKAPKLLIYSASFLYSGVPSRFSGSGSGTDFTLTISSLQPEDFATYYCQQSTGHPQTFGQGTKVEIK
VH 2: B1 VH
VL 2: B1 VL
Q: For B2, which “inhibition of growth of NIH3T3 cells overexpressing FGFR2-BICC1 compared to parental antibodies” value (“inhibition … compared to parental antibodies” for short) [7] is on record?
A: more efficient and potent; also recorded: more effective and potent

B3: M048-D01 (antibody, V domains shown)
VH: EVQLLESGGGLVQPGGSLRLSCAASGFTFSSYAMSWVRQAPGKGLEWVSAISGSGTSTYYADSVKGRFTISRDNSKNTLYLQMNSLRAEDTAVYYCARVRYNWNHGDWFDPWGQGTLVTVSS
VL: QSVLTQPPSASGTPGQRVTISCSGSSSNIGNNYVSWYQQLPGTAPKLLIYENYNRPAGVPDRFSGSKSGTSASLAISGLRSEDEADYYCSSWDDSLNYWVFGGGTKLTVLG
notes: Parental bivalent monospecific antibody; also called Antibody A; Bayer
Q: For B3, which “agonist activity in the absence of FGF ligands” value [8] is on record?
A: agonist activity

Q: What about the Kd [9] of the same molecule?
A: 16 nM

Q: And the Kd [1]?
A: 30.7 nM

Q: And the EC50 (read off the curve) [2]?
A: 0.1 µg/mL

Q: And the Kd [3]?
A: 16 nM

Q: What about the EC50 (read off the curve) [4] of the same molecule?
A: 4 µg/mL

Q: And the Binding Stoichiometry [5]?
A: 1.7

Q: What about the Kd [10] of the same molecule?
A: 105 nM

Q: And the Kd [6]?
A: 30.7 nM

B4: Biparatopic antibody B/GE (bispecific antibody, V domains shown)
VH 1: B3 VH
VL 1: B3 VL
VH 2: B2 VH 1
VL 2: B2 VL 1
Q: How did the “inhibition … compared to parental antibodies” value [7] turn out when B4 was run?
A: more efficient and potent; also recorded: more effective and potent

Q: What about the Binding Stoichiometry [5] of the same molecule?
A: 1.3

Q: What about the Kd [5] of the same molecule?
A: 0.37 nM

Q: What about the Kd [11] of the same molecule?
A: 0.37 nM

B5: FGFR_GA/GE_FL (bispecific antibody, part only; not given: Constant regions with duobody mutation, part only)
heavy chain, GA arm, part: QVQLVQSGAEVKKPGSSVKVSCKASGYIFTTYNVHWVRQAPGQGLEWIGSIYPDNGDTSYNQNFKGRATITADKSTSTAYMELSSLRSEDTAVYYCARGDFAYWGQGTLVTVSS
light chain, GA arm: DIQMTQSPSSLSASVGDRVTITCKASQGVSNDYAWYQQKPGKAPKLLIYSASYRYTGVPSRFSGSGSGTDFTFTISSLQPEDIATYYCQQHSTTPYTFGQGTKLEIK
heavy chain, GE arm, part: B2 VH 1
light chain, GE arm: B2 VL 1
Q: For B5, which Binding Stoichiometry [5] is on record?
A: 1.2

Q: And the Kd [5]?
A: 0.87 nM

Q: And the Kd [11]?
A: 0.87 nM

B6: Biparatopic antibody GE/N12 (bispecific antibody, V domains shown)
VH 1: B2 VH 1
VL 1: B2 VL 1
VH 2: QVQLVQSGAEVKKPGESLKISCKGSGYSFTNYYIHWVRQMPGKGLEWMGAIYPDNSDTTYSPSFQGQVTISADKSISTAYLQWSSLKASDTAMYYCARGADIWGQGTLVTVSS
VL 2: DIQMTQSPSSLSASVGDRVTITCRASQDIDPYLSNWYQQKPGKAPKLLIYDASNLQSGVPSRFSGSGSGTDFTLTISSLQPEDFATYYCQQTTSHPYTFGQGTKVEIK
Q: For B6, which “inhibition … compared to parental antibodies” value [7] is on record?
A: more efficient and potent; also recorded: more effective and potent

Q: What about the Binding Stoichiometry [5] of the same molecule?
A: 1.3

Q: And the Kd [5]?
A: 0.42 nM

Q: And the Kd [11]?
A: 0.42 nM
